The labels stand for the following.
T1: Cynomolgus CD3εδ Fc heterodimer (Cy CD3ε Fc / CD3δ Fc-HIS) (cynomolgus, UniProt Q95LI8 22-100)
T1 chain 1: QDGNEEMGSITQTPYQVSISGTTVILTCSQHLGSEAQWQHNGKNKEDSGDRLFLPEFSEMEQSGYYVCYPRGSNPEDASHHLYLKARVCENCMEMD
T1 chain 2: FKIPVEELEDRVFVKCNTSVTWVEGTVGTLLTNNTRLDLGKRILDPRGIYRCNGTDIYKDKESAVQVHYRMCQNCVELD

B1: SAD10320_P04_G11 (ADI-57390) (antibody, V domains shown)
VH: QVQLVQSGAEVKKPGASVKVSCKASGFNIKDYYMHWVRQAPGQRLEWMGWIDLENANTIYDAKFQGRVTITRDTSASTAYMELSSLRSEDTAVYYCARDAYRHEFYDVWGQGTLVTVSS
VL: DIVMTQSPDSLAVSLGERATINCKSSQSLLNARTGKNYLAWYQQKPGQPPKLLIYWASTRESGVPDRFSGSGSGTDFTLTISSLQAEDVAVYYCKQSYYHRTFGGGTKVEIK
notes: IgG; also called Ab115
B2: SAD10319_P05_D02 (ADI-57407) (antibody, V domains shown)
VH: QVQLVQSGAEVKKPGASVKVSCKASGYTFDSYTMHWVRQAPGPRLEWMGSINAGTGNTDYSQKFQGRVTITRDTSASTAYMELSSLRSEDTAVYYCARDHYGHYFYDVWGQGTLVTVSS
VL: DIVMTQSPDSLAVSLGERATINCKSSQSLLNARTGKNYLAWYQQKPGQPPKLLIYWASTRESGVPDRFSGSGSGTDFTLTISSLQAEDVAVYYCKQSYSRRTFGGGTKVEIK
notes: IgG; also called Ab134
B3: SAD10319_P05_A03 (ADI-57397) (antibody, V domains shown)
VH: QVQLVQSGAEVKKPGASVKVSCKASGYTFNDYAMHWVRQAPGQRLEWMGWIDAGTGNTYYSQKFQGRVTITRDTSASTAYMELSSLRSEDTAVYYCARDAHGHYFYDVWGQGTLVTVSS
VL: DIVMTQSPDSLAVSLGERATINCKSSQSLLNARTGKNYLAWYQQKPGQPPKLLIYWASTRESGVPDRFSGSGSGTDFTLTISSLQAEDVAVYYCKQSYSRRTFGGGTKVEIK
notes: IgG; also called Ab123
B4: SAD10319_P05_B05 (ADI-57402) (antibody, V domains shown)
VH: QVQLVQSGAEVKKPGASVKVSCKASGYTFVDYAMHWVRQAPGQRLEWMGWIDAGTGNTDYSQKFQGRVTITRDTSASTAYMELSSLRSEDTAVYYCARDAHGHYFYDVWGQGTLVTVSS
VL: DIVMTQSPDSLAVSLGERATINCKSSQSLLNARTGKNYLAWYQQKPGQPPKLLIYWASTRESGVPDRFSGSGSGTDFTLTISSLQAEDVAVYYCKQSYSRRTFGGGTKVEIK
notes: IgG; also called Ab129
B5: SAD10319_P05_A02 (ADI-57396) (antibody, V domains shown)
VH: QVQLVQSGAEVKKPGASVKVSCKASGYTFASYDMHWVRQAPGQRLEWMGWIDAGTGATVYSQKFQGRVTITRDTSASTAYMELSSLRSEDTAVYYCARDAYGHYFYDHWGQGTLVTVSS
VL: DIVMTQSPDSLAVSLGERATINCKSSQSLLNARTGKNYLAWYQQKPGQPPKLLIYWASTRESGVPDRFSGSGSGTDFTLTISSLQAEDVAVYYCKQSYSRRTFGGGTKVEIK
notes: IgG; also called Ab122
B6: SAD10319_P05_D04 (ADI-57409) (antibody, V domains shown)
VH: QVQLVQSGAEVKKPGASVKVSCKASGYTFTSDYMHWVRQAPGQRLEWMGWINAGTGATDYSQKFQGRVTITRDTSASTAYMELSSLRSEDTAVYYCAHDAYGRYHYDVWGQGTLVTVSS
VL: DIVMTQSPDSLAVSLGERATINCKSSQSLLNARTGKNYLAWYQQKPGQPPKLLIYWASTRESGVPDRFSGSGSGTDFTLTISSLQAEDVAVYYCKQSYSRRTFGGGTKVEIK
notes: IgG; also called Ab137
B7: SAD10319_P05_B04 (ADI-57401) (antibody, V domains shown)
VH: QVQLVQSGAEVKKPGASVKVSCKASGYTFTSAVMHWVRQAPGQRLEWMGDINAGTGATDYSQKFQGRVTITRDTSASTAYMELSSLRSEDTAVYYCARDAYGRYFYDVWGQGTLVTVSS
VL: DIVMTQSPDSLAVSLGERATINCKSSQSLLNARTGKNYLAWYQQKPGQPPKLLIYWASTRESGVPDRFSGSGSGTDFTLTISSLQAEDVAVYYCKQSYSRRTFGGGTKVEIK
notes: IgG; also called Ab128
B8: SAD10319_P05_C01 (ADI-57403) (antibody, V domains shown)
VH: QVQLVQSGAEVKKPGASVKVSCKASGYTFTDDAMHWVRQAPGQRLEWMGWIDAGTGNTYYSQKFQGRVTITRDTSASTAYMELSSLRSEDTAVYYCAHDAYGHYFYDVWGQGTLVTVSS
VL: DIVMTQSPDSLAVSLGERATINCKSSQSLLNARTGKNYLAWYQQKPGQPPKLLIYWASTRESGVPDRFSGSGSGTDFTLTISSLQAEDVAVYYCKQSYSRRTFGGGTKVEIK
notes: IgG; also called Ab130
B9: SAD10320_P04_E12 (ADI-57393) (antibody, V domains shown)
VH: QVQLVQSGAEVKKPGASVKVSCKASGFNIKDYYMHWVRQAPGQRLEWMGWIDLENANTIYDAKFQGRVTITRDTSASTAYMELSSLRSEDTAVYYCARDAYGHTFYDVWGQGTLVTVSS
VL: DIVMTQSPDSLAVSLGERATINCKSSQSLLNARTGKNYLAWYQQKPGQPPKLLIYWASTRESGVPDRFSGSGSGTDFTLTISSLQAEDVAVYYCKQSYHVRTFGGGTKVEIK
notes: IgG; also called Ab119
B10: SAD10319_P05_A01 (ADI-57395) (antibody, V domains shown)
VH: QVQLVQSGAEVKKPGASVKVSCKASGYTFTAYTMHWVRQAPGHRLEWMGWINPDTGATDYSQKFQGRVTITRDTSASTAYMELSSLRSEDTAVYYCARDAYHHYFYDVWGQGTLVTVSS
VL: DIVMTQSPDSLAVSLGERATINCKSSQSLLNARTGKNYLAWYQQKPGQPPKLLIYWASTRESGVPDRFSGSGSGTDFTLTISSLQAEDVAVYYCKQSYSRRTFGGGTKVEIK
notes: IgG; also called Ab121
B11: SAD10320_P04_A12 (ADI-57391) (antibody, V domains shown)
VH: QVQLVQSGAEVKKPGASVKVSCKASGFNIKDYYMHWVRQAPGQRLEWMGWIDLENANTIYDAKFQGRVTITRDTSASTAYMELSSLRSEDTAVYYCARDAYGHVFYDVWGQGTLVTVSS
VL: DIVMTQSPDSLAVSLGERATINCKSSQSLLNARTGKNYLAWYQQKPGQPPKLLIYWASTRESGVPDRFSGSGSGTDFTLTISSLQAEDVAVYYCKQSYHHRTFGGGTKVEIK
notes: IgG; also called Ab117
B12: SAD10320_P04_D12 (ADI-57392) (antibody, V domains shown)
VH: QVQLVQSGAEVKKPGASVKVSCKASGFNIKDYYMHWVRQAPGQRLEWMGWIDLENANTIYDAKFQGRVTITRDTSASTAYMELSSLRSEDTAVYYCARDAYGHDFYDVWGQGTLVTVSS
VL: DIVMTQSPDSLAVSLGERATINCKSSQSLLNARTGKNYLAWYQQKPGQPPKLLIYWASTRESGVPDRFSGSGSGTDFTLTISSLQAEDVAVYYCKQSYSHRTFGGGTKVEIK
notes: IgG; also called Ab118
B13: SAD10319_P05_C03 (ADI-57404) (antibody, V domains shown)
VH: QVQLVQSGAEVKKPGASVKVSCKASGYTFTSYNMHWVRQAPGQRLEWMGSIDAGTGATDYSQKFQGRVTITRDTSASTAYMELSSLRSEDTAVYYCARDAYHHYFYDVWGQGTLVTVSS
VL: DIVMTQSPDSLAVSLGERATINCKSSQSLLNARTGKNYLAWYQQKPGQPPKLLIYWASTRESGVPDRFSGSGSGTDFTLTISSLQAEDVAVYYCKQSYSRRTFGGGTKVEIK
notes: IgG; also called Ab131
B14: SAD10319_P05_D01 (ADI-57406) (antibody, V domains shown)
VH: QVQLVQSGAEVKKPGASVKVSCKASGYTFTEYDMHWVRQAPGQTLEWMGWIDAGTGATVYSQKFQGRVTITRDTSASTAYMELSSLRSEDTAVYYCARDAYGRYFYDHWGQGTLVTVSS
VL: DIVMTQSPDSLAVSLGERATINCKSSQSLLNARTGKNYLAWYQQKPGQPPKLLIYWASTRESGVPDRFSGSGSGTDFTLTISSLQAEDVAVYYCKQSYSRRTFGGGTKVEIK
notes: IgG; also called Ab133
B15: SAD10319_P05_C05 (ADI-57405) (antibody, V domains shown)
VH: QVQLVQSGAEVKKPGASVKVSCKASGYTFTSYNMHWVRQAPGPRLEWMGWIDAGTGATHYSQKFQGRVTITRDTSASTAYMELSSLRSEDTAVYYCARDAYHHYFYDVWGQGTLVTVSS
VL: DIVMTQSPDSLAVSLGERATINCKSSQSLLNARTGKNYLAWYQQKPGQPPKLLIYWASTRESGVPDRFSGSGSGTDFTLTISSLQAEDVAVYYCKQSYSRRTFGGGTKVEIK
notes: IgG; also called Ab132
B16: SAD10319_P05_B03 (ADI-57400) (antibody, V domains shown)
VH: QVQLVQSGAEVKKPGASVKVSCKASGYTFESYVMHWVRQAPGQRLEWMGWIHSGTGNTDYSQKFQGRVTITRDTSASTAYMELSSLRSEDTAVYYCARDAYGHYFYDHWGQGTLVTVSS
VL: DIVMTQSPDSLAVSLGERATINCKSSQSLLNARTGKNYLAWYQQKPGQPPKLLIYWASTRESGVPDRFSGSGSGTDFTLTISSLQAEDVAVYYCKQSYSRRTFGGGTKVEIK
notes: IgG; also called Ab127
B17: SAD10319_P05_B02 (ADI-57399) (antibody, V domains shown)
VH: QVQLVQSGAEVKKPGASVKVSCKASGYTFTSYNMHWVRQAPGPSLEWMGSIDAGTGATDYSQKFQGRVTITRDTSASTAYMELSSLRSEDTAVYYCARDAYHHYFYDVWGQGTLVTVSS
VL: DIVMTQSPDSLAVSLGERATINCKSSQSLLNARTGKNYLAWYQQKPGQPPKLLIYWASTRESGVPDRFSGSGSGTDFTLTISSLQAEDVAVYYCKQSYSRRTFGGGTKVEIK
notes: IgG; also called Ab126
B18: SAD10320_P04_F12 (ADI-57394) (antibody, V domains shown)
VH: QVQLVQSGAEVKKPGASVKVSCKASGFNIKDYYMHWVRQAPGQRLERMGWIDLENANTIYDAKFQGRVTITRDTSASTAYMELSSLRSEDTAVYYCARDAYGHEFYDVWGQGTLVTVSS
VL: DIVMTQSPDSLAVSLGERATINCKSSQSLLNARTGKNYLAWYQQKPGQPPKLLIYWASTRESGVPDRFSGSGSGTDFTLTISSLQAEDVAVYYCKQSYSRRTFGGGTKVEIK
notes: IgG; also called Ab120
B19: SAD10319_P05_D03 (ADI-57408) (antibody, V domains shown)
VH: QVQLVQSGAEVKKPGASVKVSCKASGYTFTDDAMHWVRQAPGHRLEWMGWIDAGTGNTYYSQKFQGRVTITRDTSASTAYMELSSLRSEDTAVYYCAHDAYGHYFYDVWGQGTLVTVSS
VL: DIVMTQSPDSLAVSLGERATINCKSSQSLLNARTGKNYLAWYQQKPGQPPKLLIYWASTRESGVPDRFSGSGSGTDFTLTISSLQAEDVAVYYCKQSYSRRTFGGGTKVEIK
notes: IgG; also called Ab135
B20: SAD10319_P05_A05 (ADI-57398) (antibody, V domains shown)
VH: QVQLVQSGAEVKKPGASVKVSCKASGYTFTAYTMHWVRQAPGQRLEWMGWINPDTGATDYSQKFQGRVTITRDTSASTAYMELSSLRSEDTAVYYCARDAYHHYFYDVWGQGTLVTVSS
VL: DIVMTQSPDSLAVSLGERATINCKSSQSLLNARTGKNYLAWYQQKPGQPPKLLIYWASTRESGVPDRFSGSGSGTDFTLTISSLQAEDVAVYYCKQSYSRRTFGGGTKVEIK
notes: IgG; also called Ab124

The experiment addresses T1, Cynomolgus CD3εδ Fc heterodimer (Cy …). The experiment in a line: BLI (Octet), IgG on AHC sensor, pH 6.0. For orientation: BLI is a label-free optical method that tracks binding on a fibre tip over time.
Turning to B1, the koff (commonly the rate constant with which the complex falls apart) came out at 0.00276 s⁻¹.

B2: the koff is 0.0241 s⁻¹.

B3 gave a koff of 0.0127 s⁻¹.

The molecule B4 had a koff of 0.00654 s⁻¹.

On to B5, for which the koff is 0.0246 s⁻¹.

As to B6, the koff was found to be 0.022 s⁻¹.

Regarding B7, the koff was 0.00258 s⁻¹.

In the case of B8, the koff was found to be 0.013 s⁻¹.

Molecule B9 came in with an off-rate constant (koff) of 0.0108 s⁻¹.

Take B10: the koff stood at 0.0251 s⁻¹.

Turning to B11, the koff amounted to 0.0168 s⁻¹.

Take B12: the koff was 0.00259 s⁻¹.

B13: the koff turned out to be 0.00327 s⁻¹.

B14 displayed a koff of 0.00929 s⁻¹.

For the molecule B15, the koff was 0.00821 s⁻¹.

As for B16, the koff was 0.0346 s⁻¹.

B17 had a koff of 0.00411 s⁻¹.

For B18, the koff is 0.00259 s⁻¹.

B19: the off-rate (koff) worked out at 0.0233 s⁻¹.

In the case of B20, the koff turned out to be 0.0118 s⁻¹.

Values taken from patent US20220380463A1 (Adimab, published 2022).
